Laboratory results taken from patent publication US20140017253A1 (ONCOMED PHARMACEUTICALS, published 2014).

Tests used:
[1] = molecular target: T1, human RSPO3 (recombinant, R&D Systems) (human, UniProt Q9BXY4 22-272); test: SPR (Biacore 2000), antibody captured by goat anti-human IgG on CM5 chip, human RSPO3 injected 300-37.5 nM
T1 sequence: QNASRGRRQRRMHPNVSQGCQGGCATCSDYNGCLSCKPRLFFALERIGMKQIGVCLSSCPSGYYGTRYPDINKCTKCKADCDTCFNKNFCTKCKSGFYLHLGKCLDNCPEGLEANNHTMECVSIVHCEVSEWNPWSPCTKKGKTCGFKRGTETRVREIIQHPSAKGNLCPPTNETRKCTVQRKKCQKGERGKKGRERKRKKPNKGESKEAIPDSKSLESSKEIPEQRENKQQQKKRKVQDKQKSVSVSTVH
Method: The method used was different than described in Example 3. A goat anti-human IgG antibody was coupled to a carboxymethyl-dextran (CM5) SPR chip using standard amine-based chemistry (NHS/EDC) and blocked with ethanolamine. Antibodies (purified antibody or culture supernatant) were diluted to a concentration of 10 μg/ml in HBS-P-BSA (0.01M HEPES pH7.4, 0.15M NaCl, 0.005% v/v Polysorbate 20, 100 μg/ml BSA) and captured onto the chip via the anti-human IgG antibody. […] After each antigen injection 5 μl of 100 mM H₃PO₄ was injected to remove the antigen-antibody complex and a subsequent injection performed. Kinetic data were collected over time and were fit using the simultaneous global fit equation to yield affinity constants (KD values) for each antibody (Table 4).

[2] = molecular target: T2, recombinant human RSPO3 protein, biotinylated (human, UniProt Q9BXY4 22-272, biotinylated (sites not given)); test: SPR (Biacore 2000), biotinylated human RSPO3 captured on streptavidin chip, antibody injected 100-0.78 nM
T2 sequence: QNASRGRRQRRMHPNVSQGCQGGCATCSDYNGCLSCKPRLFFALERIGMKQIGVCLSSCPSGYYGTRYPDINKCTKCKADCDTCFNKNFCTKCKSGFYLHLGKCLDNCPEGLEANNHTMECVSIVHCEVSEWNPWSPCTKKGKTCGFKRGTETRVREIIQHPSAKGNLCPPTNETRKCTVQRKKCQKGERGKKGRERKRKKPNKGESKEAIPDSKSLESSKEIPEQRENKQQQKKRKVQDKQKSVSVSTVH
Method: The antibodies were serially diluted 2-fold from 100 nM to 0.78 nM in HBS-P (0.01M HEPES pH 7.4, 0.15M NaCl, 0.005% v/v Surfactant P20) and were injected over the chip surface. Kinetic data were collected over time and were fit using the simultaneous global fit equation to yield affinity constants (KD values) for each antibody.

[3] = molecular target: T3, LGR5-Fc fusion protein (human, UniProt O75473 22-564); test: SPR (Biacore 2000), RSPO-Fc amine-coupled to CM5 chip, soluble LGR5-Fc injected 100-0.78 nM
T3 construct: range 22-564; Expressed in insect cells with baculovirus, purified on protein A; also called soluble LGR5-Fc; not shown: human Fc
T3 sequence (looked up): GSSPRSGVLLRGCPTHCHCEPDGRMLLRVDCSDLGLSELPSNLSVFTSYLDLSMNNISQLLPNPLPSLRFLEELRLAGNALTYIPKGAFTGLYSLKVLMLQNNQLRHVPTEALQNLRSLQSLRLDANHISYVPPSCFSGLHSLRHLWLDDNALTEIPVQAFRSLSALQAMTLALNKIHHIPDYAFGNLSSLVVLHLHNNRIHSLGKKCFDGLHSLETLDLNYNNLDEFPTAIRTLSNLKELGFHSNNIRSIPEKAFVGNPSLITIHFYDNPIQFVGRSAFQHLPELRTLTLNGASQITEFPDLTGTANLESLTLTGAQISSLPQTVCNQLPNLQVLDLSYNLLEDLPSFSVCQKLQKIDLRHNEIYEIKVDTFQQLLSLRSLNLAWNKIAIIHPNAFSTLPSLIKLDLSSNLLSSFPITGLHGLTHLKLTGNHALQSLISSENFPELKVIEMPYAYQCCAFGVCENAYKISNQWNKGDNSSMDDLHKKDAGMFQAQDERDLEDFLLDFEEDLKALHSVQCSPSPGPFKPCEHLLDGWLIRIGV
Method: Binding affinities between RSPO proteins and LGR5 were analyzed by surface plasmon resonance. A soluble LGR5-Fc construct was generated using standard recombinant DNA techniques. Specifically, amino acids 1-564 of human LGR5 were ligated in frame to human Fc and the recombinant LGR5-Fc fusion protein was expressed in insect cells using baculovirus. The LGR5-Fc fusion protein was purified from the insect medium using protein A chromatography. Cleavage of the LGR5 signal sequence results in a mature LGR5-Fc fusion protein containing amino acids 22-564 of LGR5. […] Two-fold dilutions of soluble LGR5-Fc were injected over the chip surface (100 nM to 0.78 nM). Kinetic data were collected over time using a Biacore 2000 system from Biacore Life Sciences (GE Healthcare) and the data were fit using the simultaneous global fit equation to yield affinity constants (KD values) for each RSPO protein (Table 3).

B1: anti-RSPO3 antibody 131R003 (antibody, human IgG2, kappa, V domains shown)
VH: QVQLKQSGPELVKPGASVKISCKASGYTFTDYSIHWVKQNHGKSLDWIGYIYPSNGDSGYNQKFKNRATLTVDTSYSTAYLEVRRLTFEDSAVYYCATYFANYFDYWGQGTTLTVSS
VL: DIVLTQSPASLAVSLGQRATISCKASQSVDYDGDSYMNWYQQKPGQPPKLLIYAASNLESGIPARFSGSGSGTDFTLNIHPVEEEDAATYYCQQSNEDPLTFGAGTKLELKR
notes: Same light chain as 131R002; also called parental 131R003; 131R003 (IgG2)
- Kd [1]: 1.9 nM
- Kd [2]: 7.3 nM

B2: 131R003CDR3 variant (antibody, human IgG2, kappa, V domains shown)
VH: QVQLKQSGPELVKPGASVKISCKASGYTFTDYSIHWVKQNHGKSLDWIGYIYPSNGDSGYNQKFKNRATLTVDTSYSTAYLEVRRLTFEDSAVYYCATYFANNFDYWGQGTTLTVSS
VL: DIVLTQSPASLAVSLGQRATISCKASQSVDYDGDSYMNWYQQKPGQPPKLLIYAASNLESGIPARFSGSGSGTDFTLNIHPVEEEDAATYYCQQSNEDPLTFGAGTKLELKR
notes: also called 131R003 CDR3 variant (IgG2); 131R003 Heavy chain - Variant 1
- Kd [1]: 1.7 nM

B3: anti-RSPO3 antibody 131R002 (antibody, human IgG2, kappa, V domains shown)
VH: QVQLQESGPELVKPGASVKISCKASGYTFTDYSIHWVKQNHGKSLDWIGYIYPSNGDSGYNQKFKNRATLTVDTSSSTAYLEVRRLTFEDSAVYYCATYFANYFDYWGQGTTLTVSS
VL: DIVLTQSPASLAVSLGQRATISCKASQSVDYDGDSYMNWYQQKPGQPPKLLIYAASNLESGIPARFSGSGSGTDFTLNIHPVEEEDAATYYCQQSNEDPLTFGAGTKLELKR
notes: Same light chain as 131R003; also called 131R002 (IgG2)
- Kd [1]: 1.3 nM
- Kd [2]: 8.2 nM

B4: humanized anti-RSPO3 antibody h131R007 (antibody, human IgG2, kappa)
heavy: QVQLVQSGAEVKKPGASVKVSCKASGYTFTDYSIHWVRQAPGQGLEWIGYIYPSNGDSGYNQKFKNRVTMTRDTSTSTAYMELSRLRSEDTAVYYCATYFANNFDYWGQGTTLTVSSASTKGPSVFPLAPCSRSTSESTAALGCLVKDYFPEPVTVSWNSGALTSGVHTFPAVLQSSGLYSLSSVVTVPSSNFGTQTYTCNVDHKPSNTKVDKTVERKCCVECPPCPAPPVAGPSVFLFPPKPKDTLMISRTPEVTCVVVDVSHEDPEVQFNWYVDGVEVHNAKTKPREEQFNSTFRVVSVLTVVHQDWLNGKEYKCKVSNKGLPAPIEKTISKTKGQPREPQVYTLPPSREEMTKNQVSLTCLVKGFYPSDIAVEWESNGQPENNYKTTPPMLDSDGSFFLYSKLTVDKSRWQQGNVFSCSVMHEALHNHYTQKSLSLSPGK
light: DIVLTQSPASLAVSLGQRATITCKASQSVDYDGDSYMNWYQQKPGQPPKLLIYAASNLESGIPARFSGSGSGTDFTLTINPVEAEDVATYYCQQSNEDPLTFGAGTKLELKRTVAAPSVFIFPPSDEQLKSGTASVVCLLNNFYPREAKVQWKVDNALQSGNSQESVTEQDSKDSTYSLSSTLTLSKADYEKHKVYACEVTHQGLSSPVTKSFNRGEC
notes: IgG2; also called h131R005/131R007; h131R005
- Kd [1]: 0.654 nM

B5: humanized anti-RSPO3 antibody h131R011 (antibody, human IgG2, kappa, V domains shown)
VH: QVQLVQSGAEVKKPGASVKVSCKASGYTFTDYSIHWVRQAPGQGLEWIGYIYPSNGDSGYNQKFKNRVTMTRDTSTSTAYMELSRLRSEDTAVYYCATYFANNFDYWGQGTTLTVSS
VL: DIQMTQSPSSLSASVGDRVTITCKASQSVDYDGDSYMNWYQQKPGKAPKLLIYAASNLESGVPSRFSGSGSGTDFTLTISPVQAEDFATYYCQQSNEDPLTFGAGTKLELKR
notes: IgG2; also called h131R011 (IgG2)
- Kd [1]: 0.686 nM

B6: RSPO1-Fc fusion protein (Fc fusion)
chain: SRGIKGKRQRRISAEGSQACAKGCELCSEVNGCLKCSPKLFILLERNDIRQVGVCLPSCPPGYFDARNPDMNKCIKCKIEHCEACFSHNFCTKCKEGLYLHKGRCYPACPEGSSAANGTMECSSPAQCEMSEWSPWGPCSKKQQLCGFRRGSEERTRRVLHAPVGDHAACSDTKETRRCTVRRVPCPEGQKRRKGGQGRRENANRNLARKESKEAGAGSRRRKGQQQQQQQGTVGPLTSAGPA
notes: not shown: human Fc region
- Kd [3]: 110 nM

B7: RSPO2-Fc fusion protein (Fc fusion)
chain: QGNRWRRSKRASYVSNPICKGCLSCSKDNGCSRCQQKLFFFLRREGMRQYGECLHSCPSGYYGHRAPDMNRCARCRIENCDSCFSKDFCTKCKVGFYLHRGRCFDECPDGFAPLEETMECVEGCEVGHWSEWGTCSRNNRTCGFKWGLETRTRQIVKKPVKDTIPCPTIAESRRCKMTMRHCPGGKRTPKAKEKRNKKKKRKLIERAQEQHSVFLATDRANQ
notes: Full-length human RSPO2 ligated in-frame to a human Fc region, expressed in insect cells; not shown: human Fc region
- Kd [3]: 14 nM

B8: RSPO3-Fc fusion protein (Fc fusion)
chain: QNASRGRRQRRMHPNVSQGCQGGCATCSDYNGCLSCKPRLFFALERIGMKQIGVCLSSCPSGYYGTRYPDINKCTKCKADCDTCFNKNFCTKCKSGFYLHLGKCLDNCPEGLEANNHTMECVSIVHCEVSEWNPWSPCTKKGKTCGFKRGTETRVREIIQHPSAKGNLCPPTNETRKCTVQRKKCQKGERGKKGRERKRKKPNKGESKEAIPDSKSLESSKEIPEQRENKQQQKKRKVQDKQKSVSVSTVH
notes: Full-length human RSPO3 ligated in-frame to a human Fc region, expressed in insect cells; not shown: human Fc region
- Kd [3]: < 1 nM

B9: RSPO4-Fc fusion protein (Fc fusion, not shown: a dimerising Fc or GST; small tags and cut ends)
chain: NRRKKQVGTGLGGNCTGCIICSEENGCSTCQQRLFLFIRREGIRQYGKCLHDCPPGYFGIRGQEVNRCKKCGATCESCFSQDFCIRCKRQFYLYKGKCLPTCPPGTLAHQNTRECQGECELGPWGGWSPCTHNGKTCGSAWGLESRVREAGRAGHEEAATCQVLSESRKCPIQRPCPGERSPGQKKGRKDRRPRKDRKLDRRLDVRPRQPGLQP
notes: Full-length human RSPO4 ligated in-frame to a human Fc region, expressed in insect cells
- Kd [3]: 73 nM
